Results published in publication PMC5665954, “Coupling fission and exit of RAB6 vesicles at Golgi hotspots through kinesin-myosin interactions” (Nature Communications, 2017).

Assays:
[1] = molecular target: GST-Myosin II-1148-1652 (human) (UniProt P35579); test: ELISA; solid-phase assay: 96-well plates coated with 10 µg GST-GFP, GST-Myosin II-1148-1652 or GST-RAB6A:GTP; 0-40 µg 6xHis-RAB6:GTP or 6xHis-KIF20A-529-665 added; 20 mM Hepes pH 7.5, 100 mM NaCl, 5 mM MgCl2; detection with anti-6xHis antibodies, absorbance at 450 nm
[2] = molecular target: the molecule itself; test: crystal structure; complex of RAB6A-Q72L-8-195 and KIF20A-603-665 at 10 mg/ml; 100 mM Hepes pH 7.4, 200 mM ammonium sulfate, 24% PEG 8K, 2% isopropanol, 17 °C; 2 Å

Sequence of 6xHis-RAB6:GTP (P20340 whole entry): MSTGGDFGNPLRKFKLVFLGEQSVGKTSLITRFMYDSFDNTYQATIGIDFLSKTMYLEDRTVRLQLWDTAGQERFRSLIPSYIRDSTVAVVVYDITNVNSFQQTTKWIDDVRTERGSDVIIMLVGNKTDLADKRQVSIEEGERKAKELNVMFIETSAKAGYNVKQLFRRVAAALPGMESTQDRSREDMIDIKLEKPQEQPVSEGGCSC

fold lower affinity than RAB6 and Myosin II-1148-1652 have for KIF20A-RBD-529-665 [1] [fold] | Molecule | stoichiometry N [2]
5 | 6xHis-RAB6:GTP (from UniProt P20340 1-208) (natural protein) | –
– | KIF20A fragment (603-665) (domain or fragment, UniProt P97329 603-665, looked up, Parallel right-handed coiled-coil dimer with an inter-helical cysteine bridge; also called KIF20A-RBD; source: E. coli BL21 (DE3), co-expressed with m20, purified (Glutathione Sepharose 4B, rTEV cleavage, Ni-NTA); not shown: GST, N-terminal, cleaved) EQWCSERLDNQKELMEELYEEKLKILKESLTTFYQEQIQERDEKIEELETLLQEAKQQPAAQQ | 2
